Legend:
[1] = target: B2R (Homo sapiens, UniProt P30411); conditions: cited from earlier work
[2] = target: bradykinin-2-receptor (B2R), human, as expressed on glioma cells (D54-MG, D54-MG-GFP, U251-MG) (human) (UniProt P30411); assay: cell-based or functional assay
[3] = system: D54-MG cells; assay: calcium imaging (Fura-2) of D54-MG cells after neuroligands; type: cell-based, human
Procedure: D54-MG cells were plated on 35-mm glass bottom dishes (MatTek, Corp., Ashland, Mass.) at ˜100×10^3 per dish and cultured for 2 days. pTRIPZ transfected cells, after stable selection, were plated at a density of ˜20×10^3 per dish and treated with […] doxycycline for 4 to 5 days to allow for sufficient protein knockdown. All cells were loaded in serum-free culture medium for 45 min with the ratiometric Ca^2+ dye Fura-2-acetoxymethylester (5 μmol/L; TEFLABS, Austin, Tex.) reconstituted in 20% wiv pluronic acid in DMSO (Invitrogen, Carlsbad, Calif.). Cells were rinsed with serum-free medium and allowed to rest in 7% serum-containing medium for 45 min at 37° C. The glass-bottom dishes were placed in an environmental chamber mounted on an inverted microscope. Cells were allowed to equilibrate in the chamber for 15 min before calcium images were collected. Following equilibration, recordings were obtained with an Olympus Disk Spinning Unit (DSU) fluorescent imaging microscope where cells were alternately excited at 340 and 380 nm using an x-cite illumination light source. Emitted light was collected at >520 nm. Images were digitized online using Slidebook 4.2 software (Intelligent Imaging Innovations, Denver, Colo.), and 340:380 nm ratios were obtained every 15 seconds. Following a 5 minute baseline recording every 15 seconds, BK was applied to the cells and imaging continued every 15 seconds for 30 or 60 minutes. In a subset of experiments, BK antagonists, HOE-140 and Bradyzide were applied to the cells. These experiments were repeated at least three times and data were pooled for statistical analysis.
Glioma cells respond to environmental clues as they invade the brain. It has been previously shown that the exposure of glioma cells to certain neuroligands induces increase in intracellular calcium concentrations. In this series of experiments, we investigated Ca^2+-responses in cultured D54-MG glioma cells, after addition of acetylcholine (ACh), ATP or BK. Glioma cells were loaded with the ratiometric Ca^2+-dye FURA2-AM, and imaged over 30 min.

[4] = system: D54-MG-GFP glioma cells; assay: Transwell migration assay; type: cell-based, human; conditions: 5 h, neuroligand at bottom of filter
Procedure: The day before the experiment was performed, ˜70% confluent dishes of cells were prepared. Transwell migration Fluoroblock cell culture inserts (BD Biosciences, San Jose, Calif.) with 8 μm pores were coated overnight with Vitronectin (BD Biosciences, San Jose, Calif.) at a concentration of 5 μg/ml in PBS. The following day, inserts were blocked with 1% fatty acid-free bovine serum albumin for 1 h. Inserts were then washed two times in PBS, and 400 μl of Migration Assay Buffer (MAB, 0.1% fatty acid-free bovine serum albumin in serum-free media) was added to the bottom of each well. Cells were rinsed once in PBS and were lifted off the dish by the addition of 0.5 mm EGTA. Cells were rinsed twice by centrifugation and resuspended in MAB and counted. Forty thousand cells were plated on the top of each filter and allowed to adhere for 30 min before drug was added. When BK+/−antagonists was added to the filters, it was added only to the bottom of the filter for chemotaxis. For migration assay, D54-EGFP MG cells were allowed to migrate for 5 hours, washed with PBS, fixed with 4% paraformaldehyde 15 minutes at room temperature, washed thrice and counterstained with DAPI for 5 minutes at room temperature. Invasion assay was performed similarly. Matrigel cell cultured inserts (BD Biosciences, San Jose, Calif.) with 8 μm pores were pretreated Vitronectin and blocked as described above. […] The number of nuclei that migrated through pores was counted. All counts per treatment were averaged and SE values were calculated. […]
To investigate the hypothesis that BK promotes glioma migration in vitro, we used Transwell migration assay which conveniently permit examination of cell migration across a membrane barrier with 8 μm pores towards vitronectin, a chemo-attractant extracellular matrix protein. This frequently used assay allows a quantitative study of drug effects with regards to drugs acting as motogens or as chemo-attractants. […]

bradykinin-2-receptor (B2R), human, as expressed on glioma cells (D54-MG, D54-MG-GFP, U251-MG) (human), sequence (P30411 whole entry): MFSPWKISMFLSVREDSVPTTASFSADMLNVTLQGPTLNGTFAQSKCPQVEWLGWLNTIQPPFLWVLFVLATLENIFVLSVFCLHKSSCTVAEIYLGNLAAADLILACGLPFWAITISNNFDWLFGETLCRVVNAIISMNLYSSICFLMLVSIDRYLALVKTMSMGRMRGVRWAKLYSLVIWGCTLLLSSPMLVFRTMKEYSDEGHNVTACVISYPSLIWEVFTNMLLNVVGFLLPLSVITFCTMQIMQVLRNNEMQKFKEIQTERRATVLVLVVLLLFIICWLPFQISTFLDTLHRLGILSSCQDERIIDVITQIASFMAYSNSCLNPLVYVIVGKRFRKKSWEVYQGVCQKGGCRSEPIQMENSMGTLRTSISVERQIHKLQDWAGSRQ
B2R, sequence (P30411 whole entry, species assumed): as the sequence (P30411 whole entry) above

In the case of `N=C(N)NCCC[C@@H](N)C(=O)N[C@@H](CCCNC(=N)N)C(=O)N1CCC[C@H]1C(=O)N1C[C@H](O)C[C@H]1C(=O)NCC(=O)N[C@@H](Cc1cccs1)C(=O)N[C@@H](CO)C(=O)N1Cc2ccccc2C[C@@H]1C(=O)N1[C@H](C(=O)N[C@@H](CCCNC(=N)N)C(=O)O)C[C@@H]2CCCC[C@@H]21` [Icatibant], the B2R antagonism [1] is given as “potent antagonist”.
For “HOE-140 (D-Arg-[Hyp3, Thi5, D-Tic7, Oic8]bradykinin) (peptide)”, the Ca2+-response of D54-MG cells to BK in the presence of HOE-140: average peak [2] was 0.15, the Ca2+-response of D54-MG cells to BK in the presence of HOE-140: cells responded [2] was 22 of 162 cells and the directionality of D54-MG cells in a BK concentration gradient in the presence of HOE-140 [2] was 8 of 15 cells. For the same compound, the rat brain slice invasion with BK and HOE-140: cells migrated up to 15 µm [2] was 25.7%, the rat brain slice invasion with BK and HOE-140: cells migrated up to 20 µm [2] was 15.4% and the rat brain slice invasion with BK and HOE-140: cells migrated up to 25 µm [2] was 6.4%. For the same compound, the rat brain slice invasion with BK and HOE-140: cells remaining on the top of the slice [2] was 47.5%, the rat brain slice invasion with HOE-140 alone: cells migrated up to 15 µm [2] was 29.8% and the rat brain slice invasion with HOE-140 alone: cells migrated up to 20 µm [2] was 14.4%. For the same compound, the rat brain slice invasion with HOE-140 alone: cells migrated up to 25 µm [2] was 3.5% and the rat brain slice invasion with HOE-140 alone: cells on top of the slice [2] was 51.9%.
With `CC(=O)OCC[N+](C)(C)C` [ACh, acetylcholine] the “average peak of Ca2+ response” value ([3]; 50 μM ACh) was 0.23±0.04 and the “cells responded (sustained rise in intracellular calcium)” value ([3]; 50 μM ACh, of 128 cells imaged) was 116.
For `Nc1ncnc2c1ncn2[C@@H]1O[C@H](COP(=O)(O)OP(=O)(O)OP(=O)(O)O)[C@@H](O)[C@H]1O` [ATP], the “average peak of Ca2+ response” value ([3]; 100 μM ATP) was 0.45±0.05, the “cells responded / cells imaged” value ([3]; 100 μM ATP) was 87/146 and the “effect on D54-MG cell migration” value [4] was “failed to alter glioma migration”.

Reference: US20140248291A1, “Modulation of Cellular Migration” (THE UAB RESEARCH FOUNDATION, priority 2011, published 2014)
